Results on one sequence are retold here after paper PMC4847777.

The data set concerns the target T1, RamA (His6-RamA) (Corynebacterium glutamicum (ATCC 13032?)) (UniProt Q8NML3).
T1 sequence: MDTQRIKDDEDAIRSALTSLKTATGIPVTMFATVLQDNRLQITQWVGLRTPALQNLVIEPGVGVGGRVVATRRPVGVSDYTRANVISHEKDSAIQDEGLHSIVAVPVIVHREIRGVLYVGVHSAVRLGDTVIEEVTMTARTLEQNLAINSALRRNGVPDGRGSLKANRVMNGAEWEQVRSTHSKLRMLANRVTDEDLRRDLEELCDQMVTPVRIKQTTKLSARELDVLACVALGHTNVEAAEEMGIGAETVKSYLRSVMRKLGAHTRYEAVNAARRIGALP
Description: EMSA. As to conditions: 10 mM Tris, 1 mM dithioerythritol, 1 mM EDTA, 1 ug poly[d(I-C)], 10% glycerol, 20 ul, about 70 ng DNA, 20 min at room temperature, pH not stated; 2% agarose in …. In general terms: Mobility shift assays separate free from complexed probe on a gel.

For the sequence “TGAAGTATTGGGATCACGCCACGCAAGATCGCGGGCATTTGCTCTAAACCACACGAGCAGGGCTGTTTGAAAAGCTGTAAATGACATGACCTAAATGATTGTACTGACTGGCACTTTAGGTCATATGTCACACCGAGTGGAATAATAAAGCTTATGCCTTTGCGTAATGTTGAGGTACCCCG (double strand) [PF3]”, the binding result is reported as “no binding”.
